Data published in patent publication US20250297012A1 (HEFEI TG IMMUNOPHARMA, published 2025).

Key:
[1] = target: T1, Human BCMA (ACRO biosystems, BCA-H522y) (human, UniProt Q02223 1-54); experiment: ELISA, plate coated with human BCMA at 2 µg/mL, HRP-goat anti-human IgG, OD450
T1 construct: Bought protein; also called human BCMA protein; BCMA antigen
T1 sequence (looked up): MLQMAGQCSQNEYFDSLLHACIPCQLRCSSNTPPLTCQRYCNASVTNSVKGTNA
Method: (§1) Human BCMA (ACRO biosystems, BCA-H522y) or human CD16A antigen (ACRO biosystems, CDD-H52W1) was diluted to 2 μg/mL with the coating buffer (35 mM NaHCO₃, 15 mM Na₂CO₃, pH 9.6). 100 μL of the diluted solution was added to each well of the enzyme-linked plate and incubated overnight at 4° C. Then, the plate was washed three times with PBST (0.05% Tween 20-PBS, pH 7.2). 300 μL of blocking buffer (1% BSA, 0.05% Tween20-PBS, pH 7.2) was added to the plate and left to stand at room temperature for 2 hours. The plate was washed three times with PBST again. The corresponding bispecific antibody or the control antibody hIgG1 was added to each well and incubated at room temperature for 1 hour. The precipitate was washed three times with PBST. 100 μL of HRP-goat anti-human IgG secondary antibody (Jackson ImmunoResearch, 109-036-170) diluted with the blocking buffer was added to each well and incubated at room temperature for 1 hour. The plate was washed three times with PBST. TMB was added to each well. A reaction was performed at room temperature in the dark for 2 min to 5 min. The reaction was terminated by adding 2 M sulfuric acid to each well. OD450 values were read using a microplate reader.

[2] = target: T2, human CD16A antigen (ACRO biosystems, CDD-H52W1) (human, UniProt P08637 17-208, limits assumed); experiment: ELISA, plate coated with human CD16A at 2 µg/mL, HRP-goat anti-human IgG, OD450
T2 construct: Bought protein; also called human CD16A protein
T2 sequence (P08637 17-208 limits assumed): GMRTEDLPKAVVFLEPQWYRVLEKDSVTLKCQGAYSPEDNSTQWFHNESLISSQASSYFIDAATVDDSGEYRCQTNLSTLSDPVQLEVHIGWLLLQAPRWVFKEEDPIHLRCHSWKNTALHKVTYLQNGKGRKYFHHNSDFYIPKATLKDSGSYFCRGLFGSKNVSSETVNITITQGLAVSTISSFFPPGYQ
Method: as §1

[3] = target: T3, human CD16B^SH (Sino Biological, 11046-H08H2) (human, UniProt O75015 17-200); experiment: ELISA, plate coated with human CD16B^SH at 2 µg/mL, HRP-goat anti-mouse IgG, OD450
T3 construct: Bought protein; SH polymorphic form; also called human CD16B^SH protein
T3 sequence (O75015 17-200 N65S/A78D limits assumed): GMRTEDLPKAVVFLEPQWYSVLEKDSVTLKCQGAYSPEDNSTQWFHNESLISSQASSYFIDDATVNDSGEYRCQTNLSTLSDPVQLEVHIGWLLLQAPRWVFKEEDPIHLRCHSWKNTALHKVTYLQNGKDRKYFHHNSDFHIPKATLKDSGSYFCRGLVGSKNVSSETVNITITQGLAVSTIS
Method: (§2) The ELISA experiment was performed to detect the binding properties of the murine CD16A antibody m40F5 obtained in Example 1. […] Then, the plate was then washed three times with PBST (0.05% Tween 20-PBS, pH 7.2). 300 μL of blocking buffer (1% BSA, 0.05% Tween20-PBS, pH 7.2) was added to the plate and left to stand at room temperature for 2 hours. Then, the plate was washed again three times with PBST. Murine antibody m40F5 or control antibody LS21 (WO2006/125668 EN) was added to each well and incubated at room temperature for 1 hour.
(§3) Again, the plate was washed three times with PBST. 100 μL of HRP-goat anti-mouse IgG secondary antibody (boster, Catalog No. BA1051) diluted with the blocking buffer was added to each well and incubated at room temperature for 1 hour. The plate was washed three times with PBST. TMB was added to each well. A reaction was performed at room temperature in the dark for 2 min to 5 min. The reaction was terminated with 2 M sulfuric acid. OD450 values were read using a microplate reader.

[4] = target: T4, human CD16B^NA2 (ACRO biosystems, CDB-H5222) (human, UniProt O75015 17-200); experiment: ELISA, plate coated with human CD16B^NA2 at 2 µg/mL, HRP-goat anti-mouse IgG, OD450
T4 construct: Bought protein; NA2 polymorphic form; also called human CD16B^NA2 protein
T4 sequence (O75015 17-200 N65S limits assumed): as the sequence (O75015 17-200 N65S/A78D limits assumed) above, with D62A counted along it
Method: as §2, §3

[5] = target: T5, human CD16A^158F (ACRO biosystems, CDA-H5220) (human, UniProt P08637 17-208); experiment: ELISA, plate coated with human CD16A^158F at 2 µg/mL, HRP-goat anti-mouse IgG, OD450
T5 construct: extracellular domain; Bought protein; also called human CD16A extracellular segment protein
T5 sequence (P08637 17-208): as the sequence (P08637 17-208 limits assumed) above
Method: as §2, §3

[6] = target: T6, human CD16A protein on CHO-K1 cells overexpressing human CD16A (human, UniProt P08637 17-254); experiment: Flow cytometry on CHO-K1 cells overexpressing human CD16A, Alexa-647 goat anti-mouse secondary antibody, binding proportion (%)
T6 construct: also called CHO cell overexpressing a human CD16A protein
T6 sequence (P08637 17-254 limits assumed): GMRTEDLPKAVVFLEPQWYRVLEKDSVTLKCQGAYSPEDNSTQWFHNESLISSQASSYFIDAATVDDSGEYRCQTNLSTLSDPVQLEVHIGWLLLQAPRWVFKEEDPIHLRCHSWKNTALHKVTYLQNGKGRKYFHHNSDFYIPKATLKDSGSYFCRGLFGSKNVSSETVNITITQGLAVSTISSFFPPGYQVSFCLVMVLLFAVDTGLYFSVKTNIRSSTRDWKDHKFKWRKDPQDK
Method: (§4) The CHO-K1 cells overexpressing human CD16A or CHO-K1 cells overexpressing cynomolgus monkey CD16 obtained in Example 1 were diluted to 2×10⁶/mL with PBS and added to a 1.5 mL EP tube at a volume of 100 μL/tube. Then, 10 μL of goat serum was added to each tube. The mixture was blocked at 4° C. for 30 min. The CD16A antibody and the control antibody mlgG at gradient concentrations (5-fold serial dilution, with the highest final concentration of 10 μg/mL) were added and incubated at 4° C. for 30 minutes. Each EP tube was filled with 1 mL of PBS and centrifuged at 3,500 rpm for 5 min at 4° C. The supernatant was completely discarded, and the cells were washed once again with PBS. After another centrifugation, the supernatant was completely discarded. The cells were resuspended in 100 μL/tube of PBS. Alexa-647-conjugated goat anti-murine antibody secondary antibody (Invitrogen) was added at […]. The cells were incubated at 4° C. in the dark for 30 min, and were washed twice with PBS and centrifuged. Then, the supernatant was completely discarded. The cells were resuspended in 200 μL/tube of PBS and detected using a flow cytometer.

[7] = target: T7, human CD16B^NA1 (ACRO biosystems, CDB-H5227) (human, UniProt O75015 17-200, limits assumed); experiment: ELISA, plate coated with human CD16B^NA1 at 2 µg/mL, HRP-goat anti-mouse IgG, OD450
T7 construct: Bought protein; NA1 polymorphic form; also called human CD16B^NA1 protein
T7 sequence (O75015 other isoform, or with tags, fused parts or gaps limits assumed): as the sequence (O75015 17-200 N65S/A78D limits assumed) above, with S20R, S49N, D62A, N66D, I90V counted along it
Method: as §2, §3

[8] = target: T8, cynomolgus monkey CD16 (ACRO biosystems, FC6-C52H9) (cynomolgus monkey, UniProt Q8SPW2 17-208); experiment: ELISA, plate coated with cynomolgus monkey CD16 at 2 µg/mL, HRP-goat anti-mouse IgG, OD450
T8 construct: Bought protein; also called monkey CD16 protein; monkey CD16 antigen
T8 sequence (Q8SPW2 17-208 limits assumed): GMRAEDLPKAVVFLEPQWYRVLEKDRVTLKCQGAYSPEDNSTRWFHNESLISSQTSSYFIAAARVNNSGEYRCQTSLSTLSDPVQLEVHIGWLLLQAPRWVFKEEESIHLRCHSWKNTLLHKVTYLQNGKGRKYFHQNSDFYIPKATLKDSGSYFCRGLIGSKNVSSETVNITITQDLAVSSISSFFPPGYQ
Method: as §2, §3

[9] = target: T9, human CD16A^158V (ACRO biosystems, CD8-H52H4) (human, UniProt P08637 17-208); experiment: ELISA, plate coated with human CD16A^158V at 2 µg/mL, HRP-goat anti-mouse IgG, OD450
T9 construct: Bought protein; It is the 158V polymorphic form; also called human CD16A^158V protein
T9 sequence (P08637 17-208 F176V limits assumed): as the sequence (P08637 17-208 limits assumed) above, with F160V counted along it
Method: as §2, §3

[10] = target: T10, cynomolgus monkey CD16 protein on CHO-K1 cells overexpressing cynomolgus monkey CD16 (cynomolgus monkey, UniProt Q8SPW2 17-254); experiment: Flow cytometry on CHO-K1 cells overexpressing cynomolgus monkey CD16, Alexa-647 goat anti-mouse secondary antibody, binding proportion (%)
T10 construct: also called CHO cell overexpressing a cynomolgus monkey CD16A protein; monkey CD16A protein
T10 sequence (Q8SPW2 17-254 limits assumed): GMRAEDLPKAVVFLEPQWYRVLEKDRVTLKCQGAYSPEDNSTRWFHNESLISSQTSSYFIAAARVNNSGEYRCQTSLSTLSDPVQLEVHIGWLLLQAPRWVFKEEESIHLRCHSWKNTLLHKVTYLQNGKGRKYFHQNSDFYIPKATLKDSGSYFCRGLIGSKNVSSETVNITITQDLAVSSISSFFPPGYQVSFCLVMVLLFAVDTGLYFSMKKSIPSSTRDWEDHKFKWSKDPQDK
Method: as §4

[11] = target: T5, human CD16A^158F (ACRO biosystems, …); experiment: ELISA, plate coated with human CD16A at 2 µg/mL, HRP-goat anti-human IgG, OD450
Method: (§5) Human B7H6 (ACRO biosystems, B76-H52H8) or human CD16A antigen (ACRO biosystems, Catalog No. CDA-H5220) was diluted to 2 μg/mL with the coating buffer (35 mM NaHCO₃, 15 mM Na₂CO₃, pH 9.6). 100 μL of the diluted solution was added to each well of the enzyme-linked plate and incubated overnight at 4° C. Then, the plate was washed three times with PBST (0.05% Tween 20-PBS, pH 7.2). 300 μL of blocking buffer (1% BSA, 0.05% Tween20-PBS, pH 7.2) was added to the plate and left to stand at room temperature for 2 hours. The plate was washed three times with PBST again. The corresponding bispecific antibody or control antibody hIgG was added to each well and incubated at room temperature for 1 hour. Again, the plate was washed three times with PBST. 100 μL of HRP-goat anti-human IgG secondary antibody (Jackson ImmunoResearch, 109-036-170) diluted with the blocking buffer was added to each well and incubated at room temperature for 1 hour. After incubation, the precipitate was washed three times with PBST. TMB was added to each well. A reaction was performed at room temperature in the dark for 2 min to 5 min. The reaction was terminated by adding 2 M sulfuric acid to each well. OD450 values were read using a microplate reader.

[12] = target: T11, Human B7H6 (ACRO biosystems, B76-H52H8) (human, UniProt Q68D85 25-262); experiment: ELISA, plate coated with human B7H6 at 2 µg/mL, HRP-goat anti-human IgG, OD450
T11 construct: Bought protein; also called human B7H6 protein; B7H6 antigen
T11 sequence (looked up): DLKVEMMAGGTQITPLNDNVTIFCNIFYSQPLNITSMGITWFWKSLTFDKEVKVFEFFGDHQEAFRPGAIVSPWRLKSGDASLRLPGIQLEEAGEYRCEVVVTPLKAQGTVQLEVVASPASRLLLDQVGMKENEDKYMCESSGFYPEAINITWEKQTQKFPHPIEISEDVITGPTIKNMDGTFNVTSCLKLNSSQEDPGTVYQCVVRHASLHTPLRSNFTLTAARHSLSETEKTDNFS
Method: as §5

B1: bispecific antibody CD16A×BCMA (bispecific antibody, human IgG1, L234A L235A)
chain 1: not shown
chain 2: DIQMTQSPSSLSASVGDRVTITCSASQDISNYLNWYQQKPGKAPKLLIYYTSNLHSGVPSRFSGSGSGTDFTLTISSLQPEDFATYYCQQYRKLPWTFGQGTKLEIKRGGGGSGGGGSGGGGSQVQLVQSGAEVKKPGSSVKVSCKASGGTFSNYWMHWVRQAPGQGLEWMGATYRGHSDTYYNQKFKGRVTITADKSTSTAYMELSSLRSEDTAVYYCARGAIYDGYDVLDNWGQGTLVTVSSEPKSCDKTHTCPPCPAPEAAGGPSVFLFPPKPKDTLMISRTPEVTCVVVDVSHEDPEVKFNWYVDGVEVHNAKTKPREEQYNSTYRVVSVLTVLHQDWLNGKEYKCKVSNKALPAPIEKTISKAKGQPREPQVCTLPPSREEMTKNQVSLSCAVKGFYPSDIAVEWESNGQPENNYKTTPPVLDSDGSFFLVSKLTVDKSRWQQGNVFSCSVMHEALHNHYTQKSLSLSPGK
notes: also called CD16A×BCMA bispecific antibody
[1]
  EC50 (read off the curve): ~0.006 µg/mL
[2]
  EC50 (read off the curve): ~0.04 µg/mL

B2: murine CD16A antibody m40F5 (antibody, mouse IgG2a, kappa)
heavy: DVQLQESGPGLVKPSQSLSLTCTVTGYSITSDYAWNWIRQFPGNKLEWMGYISYSGYTNYNPSLESRISVTRDTSKNQFFLQLNSVTTEDTATYYCAREVGLRLGWFAYWGQGTLVAVSAAKTTAPSVYPLAPVCGDTTGSSVTLGCLVKGYFPEPVTLTWNSGSLSSGVHTFPAVLQSDLYTLSSSVTVTSSTWPSQSITCNVAHPASSTKVDKKIEPRGPTIKPCPPCKCPAPNLLGGPSVFIFPPKIKDVLMISLSPIVTCVVVDVSEDDPDVQISWFVNNVEVHTAQTQTHREDYNSTLRVVSALPIQHQDWMSGKEFKCKVNNKDLPAPIERTISKPKGSVRAPQVYVLPPPEEEMTKKQVTLTCMVTDFMPEDIYVEWTNNGKTELNYKNTEPVLDSDGSYFMYSKLRVEKKNWVERNSYSCSVVHEGLHNHHTTKSFSRTPGK
light: SIVMTQTPKFLLISAGDRVTITCKASQSVNNDVAWYQQKPGQSPKLLIYYASNRYTGVPDHFTGSGYGTDFTFTISTVQAEDLAVYFCQQHYSSPWTFGGGTKLEFKRADAAPTVSIFPPSSEQLTSGGASVVCFLNNFYPKDINVKWKIDGSERQNGVLNSWTDQDSKDSTYSMSSTLTLTKDEYERHNSYTCEATHKTSTSPIVKSFNRNEC
notes: also called murine m40F5 antibody; murine 40F5
[3]
  binding result: no binding (tested: 10^4 ng/ml)
[4]
  binding result: no binding (tested: 10^4 ng/ml)
[5]
  EC50 (read off the curve): ~0.02 µg/mL
[6]
  EC50 (read off the curve): ~0.02 µg/mL
[7]
  binding result: no binding (tested: 10^4 ng/ml)
[8]
  EC50 (read off the curve): ~0.02 µg/mL
[9]
  EC50 (read off the curve): ~0.03 µg/mL
[10]
  EC50 (read off the curve): ~0.005 µg/mL

B3: bispecific antibody CD16A×B7H6 (bispecific antibody, human IgG1, L234A L235A)
chain 1: not shown
chain 2: DIVLTQTPLSLSVTPGQPASISCKASQSVDYDGDSYMNWYLQKPGQPPQLLIYAASTLHSGIPDRFSGSGSGTDFTLKISRVEAEDVGVYYCQQSKEDPRTFGQGTKLEIKGGGGSGGGGSGGGGSEVQLVQSGAEVKKPGASVKVSCKASGYTFTDYNMDWVRQAPGQGLEWIGDINPNNGGTLYNQKFRGRVTLTVDTSISTAYMELSRLRSDDTAVYYCARSEVFYGNYADYWGQGTTVTVSSEPKSCDKTHTCPPCPAPEAAGGPSVFLFPPKPKDTLMISRTPEVTCVVVDVSHEDPEVKFNWYVDGVEVHNAKTKPREEQYNSTYRVVSVLTVLHQDWLNGKEYKCKVSNKALPAPIEKTISKAKGQPREPQVCTLPPSREEMTKNQVSLSCAVKGFYPSDIAVEWESNGQPENNYKTTPPVLDSDGSFFLVSKLTVDKSRWQQGNVFSCSVMHEALHNHYTQKSLSLSPGK
notes: also called CD16A×B7H6 bispecific antibody
[11]
  EC50 (read off the curve): ~0.05 µg/mL
[12]
  EC50 (read off the curve): ~0.005 µg/mL
